Literature values as cited in patent US7759315B2, “Treatment of inflammatory conditions of the intestine” (CSL Behring AG, priority 2005, dated 2010).
Non-standard residues stand in square brackets, D forms with d. No end group written: not given here. Orn = NCCC[C@H](N)C(=O)O; Aib = CC(C)(N)C(=O)O

Target: T1, LCAT (Homo sapiens, UniProt P04180)
T1 sequence (P04180 25-440): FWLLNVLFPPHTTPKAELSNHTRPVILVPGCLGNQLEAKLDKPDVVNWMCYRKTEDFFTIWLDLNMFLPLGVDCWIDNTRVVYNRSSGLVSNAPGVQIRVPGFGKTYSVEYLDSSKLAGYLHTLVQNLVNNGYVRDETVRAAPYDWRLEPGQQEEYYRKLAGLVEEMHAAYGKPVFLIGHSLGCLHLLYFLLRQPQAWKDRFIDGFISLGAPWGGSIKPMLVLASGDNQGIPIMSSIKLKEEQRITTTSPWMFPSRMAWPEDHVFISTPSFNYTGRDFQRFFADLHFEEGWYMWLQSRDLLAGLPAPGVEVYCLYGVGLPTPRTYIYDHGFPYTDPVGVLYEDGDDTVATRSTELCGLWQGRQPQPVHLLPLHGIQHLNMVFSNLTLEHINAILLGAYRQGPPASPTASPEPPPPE

Substance	ACTIVITY (%) LCAT
PVLDEFREKLWEXLEALKQKLK (PVLDEFREKLWE[Aib]LEALKQKLK; not fully specified (C-terminus)) [Peptide 43]	25%
PVLDLFRELLNELLEALQKKLK [Peptide 24]	53%
~VLDLFRELLNEGLEALKQKLK [Peptide 47]	23%
PVLDEFREKLNEXLWALKQKLK (PVLDEFREKLNE[Aib]LWALKQKLK; not fully specified (C-terminus)) [Peptide 89]	6%
GVLDLFRELLEELKQKLK* (not fully specified (N-terminus, C-terminus); printed as GVLDLFRELLEELKQKLK*) [Peptide 198]	80%
PVLDEFWEKLNEXLEALKQKLK (PVLDEFWEKLNE[Aib]LEALKQKLK; not fully specified (C-terminus)) [Peptide 73]	10%
PVLELFLNLLERLGDALQKKLK [Peptide 172]	16%
PVLDLFRELLNELLEALKQKKK [Peptide 56]	18%
PVLDEFREKLNEELEAXKQKLK (PVLDEFREKLNEELEA[Aib]KQKLK; not fully specified (C-terminus)) [Peptide 119]	0%
pVLDLFRELLEELKQKLK* ([dP]VLDLFRELLEELKQKLK; not fully specified (N-terminus, C-terminus); printed as pVLDLFRELLEELKQKLK*; also: * mark of unstated meaning) [Peptide 214]	39%
pvLDLFRELLNELLEALKQKLK [Peptide 48]	22%
~VLDEFREKLNEXLEALKQKLK (VLDEFREKLNE[Aib]LEALKQKLK; not fully specified (C-terminus); printed as ~VLDEFREKLNEXLEALKQKLK) [Peptide 65]	15%
PVLELFDNLLERLLDALQKKLK [Peptide 179]	8%
PVLDLFRNLLEELLKALEQKLK [Peptide 57]	18%
PVLDEFREKLNELXEALKQKLK (PVLDEFREKLNEL[Aib]EALKQKLK) [Peptide 71]	11%
PVLDEFREKLNEELEWLKQKLK [Peptide 122]	0%
PVLDLLRELLEELKQKLK* (not fully specified (N-terminus, C-terminus); printed as PVLDLLRELLEELKQKLK*) [Peptide 191]	100%
PVLDLFRELLNLXLEALKEKLK (PVLDLFRELLNL[Aib]LEALKEKLK; not fully specified (C-terminus)) [Peptide 102]	2%
PVLDLFRELLEEGKQKLK* (not fully specified (N-terminus, C-terminus); printed as PVLDLFRELLEEGKQKLK*) [Peptide 229]	0%
PVLDLFRELLNELLELLKQKLK [Peptide 127]	47%
PLLELFENLLERLLDALQKKLK [Peptide 150]	57%
LVLDLFRELLNELLEALKQKLK [Peptide 59]	17%
PVLDLLRELLNELLEALKQKLK [Peptide 16]	59%
PVLDEFRKKLNEXLEALKQKLK (PVLDEFRKKLNE[Aib]LEALKQKLK; not fully specified (C-terminus)) [Peptide 69]	13%

Substance	ACTIVITY (%) LCAT
PVLDEFREKLNEXSEALKQKLK (PVLDEFREKLNE[Aib]SEALKQKLK; not fully specified (C-terminus)) [Peptide 112]	0%
GVLDLFRELLNEGLEALKQKLK [Peptide 13]	67%
PVLDLFRELLNELLE~~~~~~~ [Peptide 97]	4%
PVLDEFRELLKEXLEALKQKLK (PVLDEFRELLKE[Aib]LEALKQKLK; not fully specified (C-terminus)) [Peptide 68]	14%
PHLDEFREKLNEXLEALKQKLK (PHLDEFREKLNE[Aib]LEALKQKLK; not fully specified (C-terminus)) [Peptide 116]	0%
pVLDLFRELLNEGLEALKQKLK ([dP]VLDLFRELLNEGLEALKQKLK; not fully specified (C-terminus); printed as pVLDLFRELLNEGLEALKQKLK) [Peptide 19]	58%
PVLELFENLLERLLDLLQKKLK [Peptide 165]	23%
PKLDEFREKLNEXLEALKQKLK (PKLDEFREKLNE[Aib]LEALKQKLK; not fully specified (C-terminus)) [Peptide 115]	0%
PVLELFENLLERLFDALQKKLK [Peptide 147]	76%
pVLDLFRELLNELLEALKQKLKK ([dP]VLDLFRELLNELLEALKQKLKK; not fully specified (C-terminus); printed as pVLDLFRELLNELLEALKQKLKK) [Peptide 5]	90%
PALELFKDLLEEFRQRLK* (not fully specified (N-terminus, C-terminus); printed as PALELFKDLLEEFRQRLK*) [Peptide 213]	42%
DWFKAFYDKFFEKFKEFF [Peptide 247]	3%
PVLDLFRELLEELOQOLO* (PVLDLFRELLEEL[Orn]Q[Orn]L[Orn]; not fully specified (N-terminus, C-terminus); printed as PVLDLFRELLEELOQOLO*) [Peptide 211]	45%
PVLELFDNLLEKLLEALQKKLR [Peptide 178]	9%
PVLDLFREKLNELLEALKQKLK [Peptide 33]	33%
DWFKAFYDKVFEKFKEFF [Peptide 241]	8%
PVLELWENLLERLLDALQKKLK [Peptide 176]	11%
DVLDLFRELLEELKQKLK* (not fully specified (N-terminus, C-terminus); printed as DVLDLFRELLEELKQKLK*) [Peptide 221]	12%
PELDEFREKLNEXLEALKQKLK (PELDEFREKLNE[Aib]LEALKQKLK; not fully specified (C-terminus)) [Peptide 117]	0%
PVLDAFRELGEALLQLKK [Peptide 226]	1%
PVLELFENLLEKLLDLLQKKLK [Peptide 171]	16%
PVLDLFRELGNELLEALKQKLK [Peptide 9]	83%
GIKKFLGSIWKFIKAFVG [Peptide 242, 18L peptide (Degreat et al., 1990), reference compound]	7%
PVLDLFKELLQELLEALKQKLK [Peptide 11]	72%

Substance	ACTIVITY (%) LCAT
PVLDEFREKLNEELEALWQKLK [Peptide 121]	0%
pvlelfenllerlldalgkklk ([dP][dV][dL][dE][dL][dF][dE][dN][dL][dL][dE][dR][dL][dL][dD][dA][dL][dQ][dK][dK][dL][dK]) [Peptide 174]	13%
AVLDLFRELLNELLEALKQKLK [Peptide 29]	39%
PVLDEFREKLNEXLKALKQKLK (PVLDEFREKLNE[Aib]LKALKQKLK; not fully specified (C-terminus)) [Peptide 93]	5%
VVLDLFRELLNELLEALKQKLK [Peptide 53]	19%
PVLELFLNLLERLLDAWQKKLK [Peptide 184]	4%
PVLDLFRELLNELWQKLK [Peptide 219]	24%
PVLDLFRELLEELKNKLK* (not fully specified (N-terminus, C-terminus); printed as PVLDLFRELLEELKNKLK*) [Peptide 196]	81%
PVLDLFDNLLDRLLDLLNKKLK [Peptide 173]	15%
PVLDFFRELLEELKQKLK* (not fully specified (N-terminus, C-terminus); printed as PVLDFFRELLEELKQKLK*) [Peptide 204]	63%
PVLDLFREGWEELKQKLK [Peptide 224]	8%
PVLDAFRELAEALAQLKK [Peptide 225]	1%
PALELFKDLLEELRQRLK* (not fully specified (N-terminus, C-terminus); printed as PALELFKDLLEELRQRLK*) [Peptide 208]	48%
AVLDLFRELLEELKQKLK* (not fully specified (N-terminus, C-terminus); printed as AVLDLFRELLEELKQKLK*) [Peptide 203]	66%
PVLDLFRELLNELLEAGKQKLK [Peptide 12]	70%
PVLDLFRELGEELKQKLK* (not fully specified (N-terminus, C-terminus); printed as PVLDLFRELGEELKQKLK*) [Peptide 227]	0%
XVLDLFRELLNELLEALKQKLK ([Aib]VLDLFRELLNELLEALKQKLK; not fully specified (C-terminus)) [Peptide 32]	33%
PLLELFKELLQELLEALKQKLK [Peptide 23]	54%
PVLELFENLLEOLLDALQOOLO (PVLELFENLLE[Orn]LLDALQ[Orn][Orn]L[Orn]) [Peptide 170]	17%
PVLDKFRELLNEXLEALKQKLK (PVLDKFRELLNE[Aib]LEALKQKLK) [Peptide 88]	7%
PVLDLFREGLNELLEALKQKLK [Peptide 20]	57%
PWLDEFREKLNEXLEALKQKLK (PWLDEFREKLNE[Aib]LEALKQKLK; not fully specified (C-terminus)) [Peptide 64]	15%
GVLDLFRELLNELLEALKQKLK [Peptide 18]	58%
